In publication PMC8322834 (Biochemistry, 2020):
No end group written: not given here. AlexaFluor 488 = AlexaFluor 488 dye

Biological target: DnaK (E. coli Hsp70 chaperone), ADP-state (E. coli, UniProt P0A6Y8 1-638)
Experiment: fluorescence polarisation

DnaK (E. coli Hsp70 chaperone), ADP-state, sequence (P0A6Y8 whole entry): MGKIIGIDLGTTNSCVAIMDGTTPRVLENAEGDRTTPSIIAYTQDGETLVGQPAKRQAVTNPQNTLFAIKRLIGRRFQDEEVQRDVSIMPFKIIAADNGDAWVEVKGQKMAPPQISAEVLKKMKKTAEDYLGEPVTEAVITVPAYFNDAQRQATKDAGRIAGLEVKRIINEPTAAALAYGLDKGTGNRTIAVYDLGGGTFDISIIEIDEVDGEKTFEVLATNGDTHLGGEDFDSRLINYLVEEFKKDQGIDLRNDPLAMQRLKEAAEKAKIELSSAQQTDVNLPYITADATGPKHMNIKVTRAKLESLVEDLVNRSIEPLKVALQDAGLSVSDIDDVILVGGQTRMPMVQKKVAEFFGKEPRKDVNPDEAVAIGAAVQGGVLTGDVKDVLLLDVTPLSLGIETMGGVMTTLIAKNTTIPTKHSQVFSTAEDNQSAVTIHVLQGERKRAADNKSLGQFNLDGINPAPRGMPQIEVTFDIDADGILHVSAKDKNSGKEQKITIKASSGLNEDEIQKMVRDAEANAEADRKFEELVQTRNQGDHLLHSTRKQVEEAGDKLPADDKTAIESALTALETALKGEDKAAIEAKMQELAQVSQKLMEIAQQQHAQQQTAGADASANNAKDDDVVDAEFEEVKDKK

B1: KLR-70-C-AF488, AlexaFluor 488-conjugated KLR-70 peptide (peptide)
peptide: RRGKKLLLLLKKKGC(AlexaFluor 488)
Kd: 1730 nM
